Four molecules from patent publication US20250121081A1 (JIANGSU HENGRUI PHARMACEUTICALS, published 2025) can be followed below.

The target of test [1] is T1, human ROR1 on cells (ROR1-CHO-K1, Jeko-1, MDA-MB-231, HCC827/ROR1) (human, UniProt Q01973 30-937). As to the kind of experiment: cell-based or functional assay.
Test [2] concerns the target T1, human ROR1 on cells (ROR1-CHO-K1, …). As to the kind of experiment: cell-based or functional assay. This is another data set of the same source.
The target is the same in test [3]. In words: flow cytometry on Jeko-1 cells. The protocol:
(§1) ROR1-CHO-K1 cells (Example 1), Jeko-1 cells (ATCC, CRL-3006), or MDA-MB-231 cells (ATCC, CRM-HTB-26) were separately suspended in a FACS buffer (2% fetal bovine serum (Gibco, 10099141) and PBS at pH 7.4 (Sigma, P4417-100TAB) to prepare a cell suspension at 1× 10⁶ cells/mL, and the suspension was then added to a 96-well round-bottom plate at 100 μL/well. After centrifugation and removal of the supernatant, the test antibody that was diluted with the FACS buffer to different concentrations was added at 50 μL/well. The plate was incubated in the dark in a 4° C. refrigerator for 1 h. The plate was washed 3 times with the FACS buffer by centrifugation at 500 g, and a fluorescent secondary antibody at a working concentration was added. The plate was incubated in the dark in the 4° C. refrigerator for 40 min. The plate was washed 3 times with the FACS buffer by centrifugation at 500 g and tested on a BD FACSCantoII flow cytometer for geometric mean fluorescence intensity, and the EC₅₀ values for the binding of the antibody to the cells expressing ROR1 were calculated.

For test [4] the target is unchanged. In words: flow cytometry on MDA-MB-231 cells. The protocol: as §1
Test [5] shares this target. In words: flow cytometry on ROR1-CHO-K1 cells. The method, then: as §1
Test [6] concerns the target T2, human ROR1 (Cat. #19771-H08H, Sino Biological) antigen (human, UniProt Q01973 30-403).
T2 construct: Bought soluble antigen used as SPR analyte
In words: SPR (Biacore T200), IgG captured on Protein A chip, human ROR1 as analyte, 1:1 model. The protocol:
(§2) The anti-ROR1 antibody was analyzed by Biacore T200 (Cytiva) for affinity characterization and binding kinetics. The IgG antibody was subjected to affinity capture by a Protein A biosensor chip (Cat. #29127556, Cytiva), and then a human ROR1 (Cat. #19771-H08H, Sino Biological) antigen that was diluted with the HBS-EP buffer (pH 7.4, Cat. #BR-1006-69, Cytiva) to a series of concentrations was allowed to flow over the surface of the chip. The antigen-antibody binding kinetics was tracked for 3 min and the dissociation kinetics was tracked for 10 min. Reaction signals were detected in real time using a Biacore T200 instrument to obtain binding and dissociation curves. After dissociation was complete in each cycle, the biosensor chip was washed with 10 mM Gly-HCl at pH 1.5 (Cat. #BR-1003-54, Cytiva) for regeneration. The data obtained were analyzed with BIAevaluation software of Cytiva using a 1:1 (Langmuir) binding model.

The target in test [7] is T3, rat ROR1-His (Cat. #RO1-R5221, Acro) antigen (rat, UniProt D3ZZ97 30-406).
T3 construct: Bought His-tagged antigen; not shown: His tag
As to the kind of experiment: SPR (Biacore T200), IgG captured on Protein A chip, rat ROR1-His as analyte, 1:1 model. The protocol:
as §2, with “a mouse ROR1-His” for “a human ROR1”, “(Cat. #RO1-M522, Acro) antigen and a rat ROR1-His (Cat. #RO1-R5221, Acro)” for “(Cat. #19771-H08H, Sino Biological)”, “that were” for “that was”, “concentrations were” for “concentrations was”, “for 15” for “for 10”

For test [8], the target named is T4, mouse ROR1-His (Cat. #RO1-M522, Acro) antigen (mouse, UniProt Q9Z139 30-403).
T4 construct: Bought His-tagged antigen; not shown: His tag
T4 sequence (Q9Z139 30-403 limits assumed): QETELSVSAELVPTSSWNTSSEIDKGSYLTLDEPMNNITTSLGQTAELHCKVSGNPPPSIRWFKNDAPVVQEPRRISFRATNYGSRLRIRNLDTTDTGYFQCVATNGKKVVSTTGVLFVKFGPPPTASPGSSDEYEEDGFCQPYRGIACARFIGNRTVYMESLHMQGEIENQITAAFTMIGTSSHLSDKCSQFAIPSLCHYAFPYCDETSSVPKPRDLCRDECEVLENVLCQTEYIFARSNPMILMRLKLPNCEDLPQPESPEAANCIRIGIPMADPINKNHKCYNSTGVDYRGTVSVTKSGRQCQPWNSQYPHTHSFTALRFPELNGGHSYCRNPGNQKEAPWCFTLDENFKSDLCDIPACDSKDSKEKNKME
In words: SPR (Biacore T200), IgG captured on Protein A chip, mouse ROR1-His as analyte, 1:1 model. The protocol:
as §2, with “a mouse ROR1-His” for “a human ROR1”, “(Cat. #RO1-M522, Acro) antigen and a rat ROR1-His (Cat. #RO1-R5221, Acro)” for “(Cat. #19771-H08H, Sino Biological)”, “that were” for “that was”, “concentrations were” for “concentrations was”, “for 15” for “for 10”

The target in test [9] is T4, mouse ROR1-His (Cat. #RO1-M522, Acro) …. As to the kind of experiment: SPR (Biacore T200), IgG captured on Protein A chip, antigen as analyte. The method, then:
as §2, with “a mouse ROR1-His” for “a human ROR1”, “(Cat. #RO1-M522, Acro) antigen and a rat ROR1-His (Cat. #RO1-R5221, Acro)” for “(Cat. #19771-H08H, Sino Biological)”, “that were” for “that was”, “concentrations were” for “concentrations was”, “for 15” for “for 10”

The target in test [10] is T3, rat ROR1-His (Cat. #RO1-R5221, Acro) …. Described as above. The protocol:
as §2, with “a mouse ROR1-His” for “a human ROR1”, “(Cat. #RO1-M522, Acro) antigen and a rat ROR1-His (Cat. #RO1-R5221, Acro)” for “(Cat. #19771-H08H, Sino Biological)”, “that were” for “that was”, “concentrations were” for “concentrations was”, “for 15” for “for 10”

T2 sequence (Q01973 30-403 limits assumed): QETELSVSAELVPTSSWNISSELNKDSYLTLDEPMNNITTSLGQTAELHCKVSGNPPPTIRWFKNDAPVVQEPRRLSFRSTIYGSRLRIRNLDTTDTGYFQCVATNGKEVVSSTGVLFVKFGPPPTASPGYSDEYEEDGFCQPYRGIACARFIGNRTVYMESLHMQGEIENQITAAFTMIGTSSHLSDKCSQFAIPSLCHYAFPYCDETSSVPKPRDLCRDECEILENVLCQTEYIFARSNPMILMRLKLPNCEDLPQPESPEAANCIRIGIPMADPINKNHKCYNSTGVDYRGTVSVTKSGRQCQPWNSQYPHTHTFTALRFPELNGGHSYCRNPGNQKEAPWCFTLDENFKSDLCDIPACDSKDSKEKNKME
T1 sequence (Q01973 30-937 limits assumed): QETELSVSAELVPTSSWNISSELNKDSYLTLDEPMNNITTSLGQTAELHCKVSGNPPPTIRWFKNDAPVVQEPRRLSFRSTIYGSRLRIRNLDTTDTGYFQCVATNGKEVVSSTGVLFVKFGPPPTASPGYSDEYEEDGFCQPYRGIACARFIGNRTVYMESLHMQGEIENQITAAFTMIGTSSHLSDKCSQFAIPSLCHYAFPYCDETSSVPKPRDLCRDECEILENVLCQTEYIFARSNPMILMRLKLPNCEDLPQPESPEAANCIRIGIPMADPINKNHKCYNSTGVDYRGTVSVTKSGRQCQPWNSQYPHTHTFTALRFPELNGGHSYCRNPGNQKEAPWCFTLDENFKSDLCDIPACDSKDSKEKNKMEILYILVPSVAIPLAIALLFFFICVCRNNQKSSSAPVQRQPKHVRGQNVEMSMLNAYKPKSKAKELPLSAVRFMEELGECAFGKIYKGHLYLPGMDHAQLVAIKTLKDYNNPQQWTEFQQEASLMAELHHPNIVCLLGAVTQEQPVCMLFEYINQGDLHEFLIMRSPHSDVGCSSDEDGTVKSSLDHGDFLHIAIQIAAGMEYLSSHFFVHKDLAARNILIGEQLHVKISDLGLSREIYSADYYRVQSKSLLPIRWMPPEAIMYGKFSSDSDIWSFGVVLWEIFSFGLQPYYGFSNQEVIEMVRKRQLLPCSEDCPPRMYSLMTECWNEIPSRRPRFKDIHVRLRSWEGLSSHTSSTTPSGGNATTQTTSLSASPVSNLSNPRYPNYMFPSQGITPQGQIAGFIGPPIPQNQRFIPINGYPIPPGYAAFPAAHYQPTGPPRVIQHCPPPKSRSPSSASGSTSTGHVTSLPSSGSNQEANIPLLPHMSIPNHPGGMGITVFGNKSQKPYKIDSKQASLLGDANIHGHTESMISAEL

B1: ADC-5 (antibody 347 conjugated to compound 9A, n=3.99) (antibody, human IgG1, kappa, V domains shown)
VH: QVQLVQSGAEVKKPGSSVKVSCKASGYTFTDYYISWVRQGPGQGLEWMGGINAGNGNTNYAQKFQGRVTITADESTSTAYMELSSLRSEDTAVYYCASPGWDVFDIWGQGTMVTVSS
VL: DIQMTQSPSPLSASVGDRVTITCQASQDISNYLNWYQQKPGKAPKLLIYDASNLETGVPSRFSGSGSGTDFTFTISSLQPEDIATYYCQQHEDLPITFGQGTRLEIKR
modifications: linker-drug compound 9A conjugated after TCEP reduction; average drug loading n=3.99 per antibody; sites not stated
Turning to B1, in [1], the “IC50 (nM), killing of HCC827/ROR1 (+++) cells” value was 4.36 nM; the “IC50 (nM), killing of Jeko-1 (+) cells” value was determined as 58.1 nM; the “IC50 (nM), killing of MDA-MB-231 (+) cells” value turned out to be 349 nM.

B2: fully human ROR1 antibody 347 (antibody, human IgG1, kappa, V domains shown)
VH: QVQLVQSGAEVKKPGSSVKVSCKASGYTFTDYYISWVRQGPGQGLEWMGGINAGNGNTNYAQKFQGRVTITADESTSTAYMELSSLRSEDTAVYYCASPGWDVFDIWGQGTMVTVSS
VL: DIQMTQSPSPLSASVGDRVTITCQASQDISNYLNWYQQKPGKAPKLLIYDASNLETGVPSRFSGSGSGTDFTFTISSLQPEDIATYYCQQHEDLPITFGQGTRLEIKR
notes: Full-length human IgG1/kappa
Take B2: in test [2], the “IC50 (nM) (DT3C endocytosis killing on ROR1-CHOK1)” value amounted to 0.596 nM. For the same molecule, the 50% effective concentration (EC50) was determined as 0.098 nM in test [3], 0.094 nM in test [4] and 0.502 nM in [5]. In addition, the Kd turned out to be 1.18 nM in [6], 0.0315 nM in test [7] and 0.238 nM in test [8]. Moreover, the results for the koff in [6], in [7] and in test [8] were 0.00273 s⁻¹, 0.00115 s⁻¹ and 0.000676 s⁻¹, respectively. Also, the kon in test [6] was found to be 2.31e+06 M⁻¹ s⁻¹; in test [7], 3.66e+07 M⁻¹ s⁻¹; in [8], 2.84e+06 M⁻¹ s⁻¹.

B3: ADC-4 (antibody 347 conjugated to compound 9A, n=7.39) (antibody, human IgG1, kappa, V domains shown)
VH: QVQLVQSGAEVKKPGSSVKVSCKASGYTFTDYYISWVRQGPGQGLEWMGGINAGNGNTNYAQKFQGRVTITADESTSTAYMELSSLRSEDTAVYYCASPGWDVFDIWGQGTMVTVSS
VL: DIQMTQSPSPLSASVGDRVTITCQASQDISNYLNWYQQKPGKAPKLLIYDASNLETGVPSRFSGSGSGTDFTFTISSLQPEDIATYYCQQHEDLPITFGQGTRLEIKR
modifications: linker-drug compound 9A conjugated after TCEP reduction; average drug loading n=7.39 per antibody; sites not stated
As for B3, in [1], the “IC50 (nM), killing of HCC827/ROR1 (+++) cells” value worked out at 1.36 nM; the “IC50 (nM), killing of Jeko-1 (+) cells” value came out at 17.4 nM; the “IC50 (nM), killing of MDA-MB-231 (+) cells” value was 146 nM.

B4: anti-ROR1 antibody Ab1 in WO2018237335 (positive control) (antibody, human IgG1, kappa, V domains shown)
VH: QVQLQESGPGLVKPSQTLSLTCTVSGYAFTAYNIHWVRQAPGQGLEWMGSFDPYDGGSSYNQKFKDRLTISKDTSKNQVVLTMTNMDPVDTATYYCARGWYYFDYWGHGTLVTVSS
VL: DIVMTQTPLSLPVTPGEPASISCRASKSISKYLAWYQQKPGQAPRLLIYSGSTLQSGIPPRFSGSGYGTDFTLTINNIESEDAAYYFCQQHDESPYTFGEGTKVEIKR
notes: Positive control antibody; also called Abl
As to B4, the binding result in test [9] was “no binding”. In addition, the binding result in test [10] was “no binding”. In test [6], this molecule came in with a Kd of 91 nM, a koff of 0.0546 s⁻¹ and a kon of 600000 M⁻¹ s⁻¹.
